Measurements reported in the supplement of paper PMC9170038.

Test system: MS2 coat protein
Assay: apparent KD of MS2 coat protein; designed switch direction (-1 OFF switch, 1 ON switch): -1; higher = weaker reporter binding
Method in brief: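 Normalised cluster fluorescence was curve-fitted, and each design's median over clusters is its apparent KD. Before this, SNAP-549-labelled MS2 coat protein was titrated from 0.7 or 1.5 nM, doubling to 3 µM, over RNA switches transcribed on Illumina chips by stalled E. coli RNA polymerase. Titrations had no input, 200 uM small-molecule ligand, or an oligonucleotide input, and steps lasted 0.8–1.5 h (lowest) to 10–20 min (highest).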

[1] = input ligand: microRNA oligo, concentration not stated
[2] = Eterna round: R95, input ligand: FMN 200 uM
[3] = Eterna round: R95, input ligand: microRNA oligo, concentration not stated
[4] = Eterna round: R95, input ligand: none

Row | Sequence | apparent KD of MS2 coat protein (input ligand: FMN 200 uM) | apparent KD of MS2 coat protein [1] | apparent KD of MS2 coat protein (input ligand: none) | apparent KD of MS2 coat protein [2] | apparent KD of MS2 coat protein [3] | apparent KD of MS2 coat protein [4]
1 | ACAUGAGGAUCACCCAUGUAAUGAUGGGUACUAUAUUAUUCGUAGGAUAUCGUUGUUAGUUUGUGCGAGAAGGACGUUUGCCUU [JR_ExcNG3_Sub056] (Eterna round: R96, puzzle: Exclusion NG 3) | 994 nM | 667 nM | 698 nM | – | – | –
2 | AAGAAACAUGAGGAUCACCCAUGUGAGGAUAUGUAAAAGAAAAGAAAAUAAAGAAGAAACAGAAGGCACAAAGG [Mat - Mod of Hog D21] (Eterna round: R96, puzzle: Exclusion 1) | – | 30.9 nM | – | – | – | –
3 | UAACAUGUCUGAGGAUAUCUGCACGAUUAGUGCAGAGAAGGCAGAACAUGAGGAUCACCCAUGUAGAUCAUUAAUUAAUUAAUU [ENG1/7-B1] (Eterna round: R96, puzzle: Exclusion NG 1) | 712 nM | 288 nM | 344 nM | – | – | –
4 | CCCAUGCCUGAGGAUAUGCUGUACAAAAGUACUGCAGAAGGCGGGACAUGAGGAUCACCCAUGUGGCGAAAGCC [Omei Ex G6] (Eterna round: R97, puzzle: Exclusion 6) | 67 nM | – | 326 nM | – | – | –
5 | UGAGAGUGAGGAUAUACGUCGCUGGUCCGGAUGGACGCAUGACAUGAGGAUCACCCAUGUAGAAGGCAUUUCCC [Enxela Mod 6 - Jieux - Exclusion 2] (Eterna round: R97, puzzle: Exclusion 2) | 75.2 nM | – | 26.9 nM | – | – | –
6 | UAUUAACAUGUAGGAUAUCUGCACGUUUAGUGCAGAGAAGGACAUGAGGAUCACCCAUGUAGAUCAUAAUAAUUUAAUUUAAUU [ENG1/6-D2] (Eterna round: R96, puzzle: Exclusion NG 1) | 541 nM | 141 nM | 117 nM | – | – | –
7 | GCUGGACGAGGAUAUACAUGAGGAUCACCCAUGUGAUCAGCAGUCCUCGGACUGCAAUGUAGAAGGUGUCCAGC [E3/1-B2] (Eterna round: R97, puzzle: Exclusion 3) | 302 nM | – | 2320 nM | – | – | –
8 | AGGGCACGAGGAUAUGUGAAACUGGACUUGAGGAUCACCCAAGUCGUCUUCGUGUCCAAAGCAGAAGGCGUGGCCA [Zaesce] (Eterna round: R97, puzzle: Exclusion 5) | 13.8 nM | – | 10.4 nM | – | – | –
9 | UUGGAUGUUGAGGAUAUGCUUUUUUUUAUUAUAGCAGAAGGCGAUACAUGAGGAUCACCCAUGUUCAUGGCUUU [JR_E6_Sub099] (puzzle: Exclusion 6) | – | – | – | 14.5 nM | 13.7 nM | 14.6 nM
10 | GAUGAGCAUGUCAGGAUAUCCACUCUAAUAAAACAGGAGAAGGGACAUGAGGAUCACCCAUGUUCUAGACAUGA [Latealedi] (puzzle: Brourd's mod of Exclusion 4) | – | – | – | 14.5 nM | 13.1 nM | 14 nM
11 | UACUUACGAGGAUAUCGAUUGUGGUACAUGAGGAUCACCCAUGUAUGUGAUAUUGUAUUUCGAGAAGGCGUUCAGU [JR_E5_Sub061] (puzzle: Exclusion 5) | – | – | – | – | 22.7 nM | –
12 | AGCGAAAAGACAGGAUAUGAGAAUAGAUAGAGCUCAGAAGGGUCACAUGAGGAUCACCCAUGUAAAGUCUUGAGGCUGCGUGGU [Prohibition 11 - Jieux - Exclusion NG 1] (Eterna round: R96, puzzle: Exclusion NG 1) | 184 nM | 43.4 nM | 55.6 nM | – | – | –
13 | ACAAGUUUUUAGAUUCUUAACAUGAGGAUCACCCAUGUGCUCGUCUUGUUUGUACUAUCACCGCCGGUGAUAGUACA (Eterna round: R97, puzzle: Sensor, turn-off variant 1) | 65 nM | – | 81 nM | – | – | –
14 | GUGGUACAUGAGGAUCACCCAUGUUAGGAUAUCGCGUGAGGUAAAACUUACACACACACGAGAAGGGACGACAU (puzzle: Exclusion 1) | – | – | – | – | 64.4 nM | –
15 | AGAAAAGACCUAGGAUAUACCCAGUGGGUAGAGGGUCAUAAUAAUAAAACAUGAGGAUCACCCAUGUAGAAGGAGGGAAAGAAG [Biriusdibe] (Eterna round: R96, puzzle: Exclusion NG 2) | 58.1 nM | 47.1 nM | 63.2 nM | – | – | –
16 | CAGUACAGAGGAUAUACAUGAGGAUCACCCAUGUGUUUCAGGUACGAGAGUACCGAGUGUAGAAGGCUGUACUG [jl-ex3-4.28 salish99 mod] (Eterna round: R97, puzzle: Exclusion 3) | 244 nM | – | 38.1 nM | – | – | –
17 | ACUCGACAUGAGGAUCACCCAUGUGAGGAUAUGGCCUGUAUGGCGUGAGCUGAAUCAAUCAGAAGGCGCGUGGG [salish99_ex1_r4_053] (Eterna round: R97, puzzle: Exclusion 1) | 105 nM | – | 44.8 nM | – | – | –

Row | Sequence | apparent KD of MS2 coat protein (input ligand: FMN 200 uM) | apparent KD of MS2 coat protein [1] | apparent KD of MS2 coat protein (input ligand: none) | apparent KD of MS2 coat protein [2] | apparent KD of MS2 coat protein [3] | apparent KD of MS2 coat protein [4]
18 | UGUCUUGCAGGAUAUACAUGAGGAUCACCCAUGUAUAUUGAUGAGGGAGAUCUACUAGGUAGAAGGGUAAGAGA [Eternabot (L2) Solution 59] (Eterna round: R97, puzzle: Exclusion 3) | 45 nM | – | 17.8 nM | – | – | –
19 | AGAAGUAGUAACCGAUCCUACAUGAGGAUCACCCAUGUAGCUAGACGUGCACGCGACGCUCGUCAGACUACCAGAUG [salish99_TOv1_r3_029] (puzzle: Sensor v3, turn-off variant 1) | – | – | – | 270 nM | 324 nM | 418 nM
20 | AAGAAACAUGAGGAUCACCCAUGUGAGGAUAUGAUAUGCUAAGCGUAAGCUUAGUAUAUCAGAAGGCACAAAGG [Salishxlusion 1 - Jieux - Exclusion 1] (Eterna round: R97, puzzle: Exclusion 1) | 319 nM | – | 120 nM | – | – | –
21 | GACUAGAGAGGAUAUAUUUACAGUGUACCUCGGAUGAUCGCACUUGAGGAUCACCCAAGUAGAAGGCUCGAGGG [EX2 #29] (Eterna round: R97, puzzle: Exclusion 2) | 11 nM | – | 15.2 nM | – | – | –
22 | CAUGAUUGGGAAGGAUAUUGACCUAGUUAGCGCCGAGAAGGUCCCUGUCACAUGAGGAUCACCCAUGUGAGUCUGGUGUUCGAG [Ex NG1 #95] (Eterna round: R96, puzzle: Exclusion NG 1) | 29.7 nM | 17.7 nM | 21.6 nM | – | – | –
23 | ACCAUGUAAGGAUAUGGUGGCUGUGAACAGGCCUGAUAAAUCUAGAAGGUACAUGAGGAUCACCCAUGUGAUGA [Eternabot (L2) Solution 84] (Eterna round: R97, puzzle: Exclusion 4) | 54 nM | – | 32.7 nM | – | – | –
24 | UGGAUAACAGGAUAUACAUGAGGAUCACCCAUGUUUCCGGACGGAGACGAAUCCUAGAGUAGAAGGGUUAUCCC [Eternabot (Original) Solution 17] (Eterna round: R97, puzzle: Exclusion 3) | 388 nM | – | 362 nM | – | – | –
25 | CUGAGCUGAGGAUAUACAUGAGGAUCACCCAUGUUAAGCAGCUUGCGUAAAAGCAGAUGUAGAAGGCAGUUCGG [Mod of JL 18 - Jieux - Exclusion 3] (Eterna round: R97, puzzle: Exclusion 3) | 18.1 nM | – | 13.7 nM | – | – | –
26 | GUAAACGAUCAGGAUAUAUCAAAUCAUAGCUUGAUAGAAGGGAUCACAUGAGGAUCACCCAUGUGAUCUUCUUA [Mat - Exclusion 6 - JL Mod - D36] (Eterna round: R97, puzzle: Exclusion 6) | 13 nM | – | 10.9 nM | – | – | –
27 | UAAUUGUGAGGAUAUUCGUAUAACACGGAGACGUGUUGUACGGAGAAGGCACAUGAGGAUCACCCAUGUUCCUU [Mat - Exclusion 4 - JL Mod - D18] (Eterna round: R97, puzzle: Exclusion 4) | 96 nM | – | 15.2 nM | – | – | –
28 | GAAAAGGUAGGAUAUACGAAAAGAAAGGGUAGAAGAAGAACACAUGAGGAUCACCCAUGUAGAAGGACCAAAAG [Mat - Exclusion 2 - Mod of my Tesla design - D1] (puzzle: Exclusion 2) | – | – | – | 73.1 nM | 18.5 nM | 16.5 nM
29 | AUACCACGAGGAUAUCGACUAUACCACAUGAGGAUCACCCAUGUUAUCCAUGUUUCGUUUCGAGAAGGCGUGGGUU [JR_E5_Sub073] (puzzle: Exclusion 5) | – | – | – | – | 32.3 nM | –
30 | AAUUAUUAUUGAGGAUAUCGUAGUGAAACACUACGAGAAGGCGGUAUAAACAUGAGGAUCACCCAUGUGAGCCUGAUGCUUAUG [Ex NG1 #44] (Eterna round: R96, puzzle: Exclusion NG 1) | – | 20.6 nM | – | – | – | –
31 | GAUUAUGCGAGCUUUAGGGACAUGAGGAUCACCCAUGUUCGUCUUAUUAGUCUGGGUACACUAACAUACCUAAAUCU [JMF 21] (puzzle: Sensor v3, turn-off variant 1) | – | – | – | 26.9 nM | 43.6 nM | 30.4 nM
32 | CAGCUGUGAGGAUAUACAUGAGGAUCACCCAUGUUAAGGAAGUGGUGUAUAUUGUAGUGUAGAAGGCACUUGUC [JR_Ex3_Sub026] (Eterna round: R97, puzzle: Exclusion 3) | 234 nM | – | 123 nM | – | – | –
33 | GGUGGACAUGAGGAUCACCCAUGUGAGGAUAUCGGCUGGUACGUGUUGGCUGGCAUCUCGAGAAGGCACAUCGU [Exclusion 1 V64] (Eterna round: R96, puzzle: Exclusion 1) | 181 nM | 46 nM | 49 nM | – | – | –
34 | GUUUUCAGACGGAGAUCCUACAUGAGGAUCACCCAUGUCUCUCUUGCUAAUUGCUCGUCUUAUUCUCCUCUGUUCUC [Elimod 37 - Jieux - Sensor, turn-off variant 1] (Eterna round: R97, puzzle: Sensor, turn-off variant 1) | 80.8 nM | – | 100 nM | – | – | –
